In this assay the target is hFcRn/β2-microglobulin complex (human) (UniProt P55899). Briefly: BLI, His-tagged hFcRn/b2m on Ni-NTA, pH 5.6.
hFcRn/β2-microglobulin complex (human), sequence (P55899 24-297 limits assumed, chain 1 of 2): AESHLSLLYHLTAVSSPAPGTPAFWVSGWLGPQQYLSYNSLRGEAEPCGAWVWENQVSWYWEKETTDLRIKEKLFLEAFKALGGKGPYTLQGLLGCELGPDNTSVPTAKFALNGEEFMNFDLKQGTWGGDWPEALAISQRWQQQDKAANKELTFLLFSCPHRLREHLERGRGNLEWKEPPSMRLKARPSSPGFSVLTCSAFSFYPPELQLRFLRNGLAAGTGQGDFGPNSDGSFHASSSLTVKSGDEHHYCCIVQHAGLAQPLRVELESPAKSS
hFcRn/β2-microglobulin complex (human), sequence (P61769 21-119 limits assumed, chain 2 of 2, further chain): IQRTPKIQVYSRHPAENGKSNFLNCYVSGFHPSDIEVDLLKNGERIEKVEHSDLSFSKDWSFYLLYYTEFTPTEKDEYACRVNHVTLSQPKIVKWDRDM

T-01 MB IgG1 I253V came in with a fold higher affinity than the IgG1 control above 1000 fold.

Values taken from patent publication US20250276070A1.
